Here are results for 56 substances from the supplement of paper PMC12042874.

± gives the uncertainty stated by the source.

This data set can be described thus: amyloid nucleation score (Sup35N fusion, yeast selection) (log enrichment); library NNK2; higher = more nucleation; inactive = no reads after selection. In a few lines: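 The nucleation score, computed with DiMSum, is the log enrichment of output over input reads, centred on the mode score of non-aggregating sequences. Sequences with under 100 input reads were dropped. Reads were generated by Illumina sequencing of plasmid inserts from psi-negative yeast with Sup35N fused to peptides of 20 random codons, induced with 100 μM copper sulfate for 24 hours and grown 7 days at 30°C on medium lacking adenine and uracil.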
On to GYIYVNSGYRFTKLCMVFC, for which the amyloid nucleation score stood at 0.058 ± 0.79.

For the substance GYLFGSALKSDIQYHTESMF, the amyloid nucleation score result was “inactive”. For the substance GYLLGSDSGDGGPFVIERIK, the amyloid nucleation score amounted to 0.687 ± 0.38. As to GYLSDMINFVSYCGRLSWSV, the amyloid nucleation score result was “inactive”. Consider GYMSYT, for which the amyloid nucleation score is -0.863 ± 0.32. GYNQLLTQGKPGYCFRISRV showed an amyloid nucleation score of -1.29 ± 0.78. In the case of GYRNPLLLILLDRVKFSCSR, the amyloid nucleation score is -1.19 ± 1. GYSAYESANWRLA yielded an amyloid nucleation score of 1.19 ± 0.44. As for GYSILKC, the entry is “inactive”; as for GYTIDWMGVLQSVVLCT, 0.524 ± 0.6. The result for HADNARRYQTTLMVGLRVVG reads 0.409 ± 0.49; that for HAFLG, 0.53 ± 0.5. The result for HAMLRTDILICCITH reads 9.805 ± 0.065; that for HCCKSVRLESIRMRCGACYL, 0.007 ± 0.56. With HCMYDWMNRSMGLVFDCLFL, the amyloid nucleation score was -1.04 ± 1. With HCPVSVVTRHGLTVNDVRHY, the amyloid nucleation score was -0.062 ± 0.46. The result for HCRSIVWSRYFLMNPLN reads -0.029 ± 0.61. The result for HCVLRSQT reads 2.38 ± 0.12; that for HCYQTDRSHIICHELLHCFV, -0.74 ± 0.49; that for HEMRDGNSRLMFYWGVSCNM, 0.062 ± 0.45. As for HERLKLAGSQSWVGKLVRQG, the figure is 0.917 ± 0.29; as for HESKYNVQVFN, -0.276 ± 0.76. Turning to HFIIYYDSYNTMVIGEFAVQ, the amyloid nucleation score entry is “inactive”. The result for HFKSDSSSSEMTRLVEPGGV reads -0.125 ± 0.63. In the case of HFMRLYSKVLILLAEKRTAP, the amyloid nucleation score worked out at 0.083 ± 0.76. The result for HFNSLVSGQYMWSSGKSLVP reads 4.01 ± 0.061; that for HFNVPCNCSNCSYGTILSIT, -0.305 ± 0.8. As for HFRSLALISLAEKFITRIEK, the figure is -0.13 ± 0.22.

HFSDVSSEVGVIHCSMLGSN had an amyloid nucleation score of -0.107 ± 0.49. As for HGGGVLHIFLNIAPLVS, the figure is 1.52 ± 0.28; as for HGLVGESVRSYQTQRQVTMA, 0.544 ± 0.4; as for HGYRLSHSQPKSTSSLV, -0.083 ± 0.63. As for HGYSWCCFHVGS, the figure is 8.926 ± 0.054; as for HICPFGCGYYLGEDKDAWSG, -0.749 ± 0.56.

HIIPEYRVFLLLFHDDGAGF: the amyloid nucleation score result is “inactive”. As for HIRGVIVGRAPDRCI, the entry is “inactive”; as for HIRLRY, -0.101 ± 0.8.

In the case of HISVISTNEFTRIRASAAHA, the amyloid nucleation score was 1.38 ± 0.67.

Take HIVRNYFTLTSCAHTIHFAD: the amyloid nucleation score was -0.861 ± 1. In turn, HKCTSAV showed an amyloid nucleation score of 0.229 ± 0.61.

In the case of HKIPLFYCSYTELGSSVERR, the amyloid nucleation score is 1.38 ± 0.15. As for HKLTRRKWNCLRNWKLNLHQ, the figure is -0.953 ± 0.54.

With HKMADSTNDSNRLEFDMFNE, the amyloid nucleation score is -0.881 ± 0.78.

HKQRSSASKSV returned an amyloid nucleation score of -0.321 ± 0.39. The result for HKWEAKMGPISVLFRCFGLD reads 1.09 ± 0.14; that for HLEPRIPLWMPVFGVSKVRS, 2.7 ± 0.12; that for HLFCTMHSQTLEDYIKSLVC, -0.087 ± 1. The result for HLFNGSGGLFSLTRSFMKS reads -0.228 ± 1.1; that for HLGKASYREFSFFKGLGY, “inactive”; that for HLHGCIAMCASSSLIAGCTE, -0.603 ± 0.78. As for HLLYPSSMVDRALHGLDTRT, the figure is 5.358 ± 0.051.

In turn, HLMLFDMTASLLHSHNVSRP came in with an amyloid nucleation score of 5.63 ± 0.058.

In the case of HLNFRSGILAISFIFDLSNH, the amyloid nucleation score result is “inactive”. As for HLSYILGVGMFNVHHDNGFF, the figure is 2.5 ± 0.2; as for HLVSSRGRMWPPFAPVGKQD, 0.492 ± 0.64; as for HMEAFWCWFYGNVAFNRFCV, -0.305 ± 1.
